Consider seven molecules from patent US20210347873A1 (SHANGHAI PHARMAEXPLORER, published 2021).

Assay [1] has as its target human BLyS (full length, arginine to histidine at position 132) on CHO-K1 cells (human) (UniProt Q9Y275). The assay can be described thus: flow cytometry, CHO-K1 hBLyS cells, antibody 2.67 nM. (Flow cytometry measures light scatter and fluorescence of single cells or particles in a stream.)
The target is the same in assay [2]. The assay can be described thus: flow cytometry, CHO-K1 hBLyS cells, antibody 66.7 nM.
The target in assay [3] is cynomolgus BLyS (full length, arginine to histidine at position 132) on CHO-K1 cells (cynomolgus). Briefly: flow cytometry, CHO-K1 cynoBLyS cells, antibody 0 nM.
The target of assay [4] is human BLyS (full length, arginine to histidine at position 132) on CHO-K1 cells (human) (UniProt Q9Y275). The assay can be described thus: flow cytometry, CHO-K1 hBLyS cells, antibody 0.534 nM.
The target is the same in assay [5]. Briefly: flow cytometry, CHO-K1 hBLyS cells, antibody 0.0213 nM.
In assay [6] the target is cynomolgus BLyS (full length, arginine to histidine at position 132) on CHO-K1 cells (cynomolgus). The assay can be described thus: flow cytometry, CHO-K1 cynoBLyS cells, antibody 0.107 nM.
For assay [7] the target is unchanged. Briefly: flow cytometry, CHO-K1 cynoBLyS cells, antibody 0.0213 nM.
Assay [8] has as its target T1, biotinylated hBLyS-ECD (human, UniProt Q9Y275 134-285, biotinylated with Biotin-X-X-NHS (molar ratio 7:1); sites not stated).
T1 construct: also called biotinylated immunogen; BLyS protein
The assay can be described thus: blocking ELISA: biotinylated hBLyS-ECD on coated BAFF R, antibody 100 nM. The protocol:
(§1) BAFF R (purchased from R & D Systems) was aliquoted into 96-well ELISA plate at 50 ng per well, and the plate was sealed with plastic film and incubated overnight at 4° C. On the next day the plate was washed four times with the plate washing buffer [PBS buffer containing 0.05% (v/v) Tween20] and added with blocking solution [PBS buffer containing 0.05% (v/v) Tween20 and 1% (w/w) BSA], then blocked for 1 hour at room temperature. The blocking solution was removed and 50 μL per well of the lead antibodies prepared in Embodiment 1 and 2 were added followed by the addition of 50 μL per well of the biotinylated hBLyS-ECD prepared in Embodiment 2. After incubation for 1 hour at 37° C., the plate was washed four times with the plate washing buffer [PBS buffer containing 0.05% (v/v) Tween20]. 100 μL per well of HRP-labeled (horseradish peroxidase) avidin (purchased from Sigma) was added and incubated at 37° C. for 1 hour. The plate was then washed four times with the plate washing buffer [PBS buffer containing 0.05% (v/v) Tween20]. 100 μL of TMB substrate was aliquoted into each well and after incubation for 5 minutes at room temperature, then 100 μL of stop solution (1.0 N HCl) was aliquoted into each well. A₄₅₀ₙₘ values were read with an ELISA plate reader (SpectraMax 384plus, Molecular Device) and the results were shown in FIGS. 9A-9B and Table 15. It was shown in Table 15 that the binding of BLyS protein to its receptor BAFF R could be blocked by the BLyS antibody.
T1 sequence (Q9Y275 134-285): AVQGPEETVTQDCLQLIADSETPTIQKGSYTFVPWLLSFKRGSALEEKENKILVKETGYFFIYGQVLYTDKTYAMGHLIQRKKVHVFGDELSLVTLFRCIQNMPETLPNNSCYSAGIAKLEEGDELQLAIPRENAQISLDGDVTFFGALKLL

Assay [9] deals with T1, biotinylated hBLyS-ECD. The assay can be described thus: blocking ELISA: biotinylated hBLyS-ECD on coated BAFF R, antibody 0.0064 nM. On the procedure:
BLyS antibody blocking the binding of the BLyS protein to its receptor BAFF R was detected by the receptor-ligand binding assay of BLyS protein.
as §1
Background: ELISA stands for enzyme-linked immunosorbent assay.

In assay [10] the target is T2, biotinylated hBLyS-ECD (human, UniProt Q9Y275 134-285, biotinylated with Biotin-X-X-NHS (molar ratio 7:1); sites not stated).
T2 construct: also called biotinylated immunogen; biotinylated hBLvS-ECD
Briefly: ELISA on captured biotinylated hBLyS-ECD; antibody 13.3 nM.
T2 sequence (Q9Y275 134-285): as above

Assay [11] has as its target T2, biotinylated hBLyS-ECD. Briefly: ELISA on captured biotinylated hBLyS-ECD; antibody 0.107 nM.
In assay [12] the target is T2, biotinylated hBLyS-ECD. Briefly: ELISA on captured biotinylated hBLyS-ECD; antibody 0.534 nM.
The target of assay [13] is T2, biotinylated hBLyS-ECD. The assay can be described thus: ELISA on captured biotinylated hBLyS-ECD; antibody 0.0213 nM.
Assay [14] has as its target T2, biotinylated hBLyS-ECD. Briefly: ELISA on captured biotinylated hBLyS-ECD; antibody 0.00427 nM.
In assay [15] the target is T3, extracellular domain of human BLyS protein (hBLyS-ECD), His-tagged, Ala134-Leu285 (human, UniProt Q9Y275 134-285).
T3 construct: Expressed in HEK293 cells and purified on a Ni column; also called immunogen
Briefly: SPR (Biacore), antibody captured by anti-human Fc, hBLyS-ECD as analyte. On the procedure: Affinity constants were determined using a Biacore X100 instrument (purchased from GE Healthcare). Detailed operations and methods referred to the instrument manuals and detailed methods provided by manufacturers, specifically: determining affinity constant using a CM5 chip (Sensor Chip CM5, purchased from GE Healthcare). […] Then 1 M ethanolamine was injected in chip to block the remaining activation sites. After the antibody to be tested (i.e., the human BLyS antibody prepared by Embodiment 2) was captured by chip, 7 different gradient of immunogen dilutions (i.e., hBLyS-ECD) prepared by Embodiment 1 were injected and the binding and dissociation of antigen with antibody was detected by a Biacore instrument. The dissociation constant and binding constant were then fitted by Biacore X100 Evaluation Software 2.0, while the affinity constant was the ratio of dissociation constant to binding constant.
The binding and dissociation between antibody and antigen was detected by Biacore.

Assay [16] concerns the target T2, biotinylated hBLyS-ECD. The assay can be described thus: BAFF R-coated ELISA, biotinylated hBLyS-ECD bound in presence of antibody 0.8 nM.

T3 sequence (Q9Y275 134-285): as above
cynomolgus BLyS (full length, arginine to histidine at position 132) on CHO-K1 cells (cynomolgus), sequence (Q9Y275 other isoform, or with tags, fused parts or gaps limits assumed): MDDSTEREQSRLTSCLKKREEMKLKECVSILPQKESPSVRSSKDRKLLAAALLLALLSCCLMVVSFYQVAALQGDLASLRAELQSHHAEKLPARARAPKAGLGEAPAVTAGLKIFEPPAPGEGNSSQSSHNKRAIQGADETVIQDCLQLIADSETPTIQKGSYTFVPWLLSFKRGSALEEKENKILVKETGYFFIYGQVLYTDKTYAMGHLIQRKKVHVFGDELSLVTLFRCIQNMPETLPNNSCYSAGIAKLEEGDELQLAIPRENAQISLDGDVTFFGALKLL
human BLyS (full length, arginine to histidine at position 132) on CHO-K1 cells (human), sequence (Q9Y275 whole entry R130H): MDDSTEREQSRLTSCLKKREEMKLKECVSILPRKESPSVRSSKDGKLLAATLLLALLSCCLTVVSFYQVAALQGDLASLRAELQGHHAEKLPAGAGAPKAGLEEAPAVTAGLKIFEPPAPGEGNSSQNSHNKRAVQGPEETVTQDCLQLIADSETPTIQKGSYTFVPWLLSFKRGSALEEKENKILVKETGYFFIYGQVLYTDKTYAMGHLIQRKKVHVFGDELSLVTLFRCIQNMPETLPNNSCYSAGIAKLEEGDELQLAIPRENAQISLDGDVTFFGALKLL

In the case of mIgG Control (antibody), the MFI in [1] amounted to 31 MFI; in assay [2] it was 33.6 MFI; in assay [3], 19.8 MFI; in assay [4], 30.7 MFI; in [5], 32.7 MFI; in assay [6], 19.7 MFI. Also, the MFI in assay [7] is 19.8 MFI.

Consider hIgG Control (antibody), for which the MFI in assay [1] turned out to be 33.1 MFI; in assay [2], 52 MFI; in assay [3] it was 20.7 MFI; in assay [4] it was 33.4 MFI; in [5] it was 33.6 MFI; in [6] it was 22.8 MFI. This molecule displayed an MFI in [7] of 22.4 MFI.

B1: 8E7D9C7F5 (antibody, V domains shown)
VH: QVQLQQSGVELARPGASVKLSCKASGYTFTSYGISWVKQRTGQALEWIGEIYPRSGNTYYNEKFKGKATLTADKSSSTAYMELRSLTSEDSAVYFCARSGPITTLVATDYGMDYWGQGTSVTVSS
VL: DIVLTQSPASLAVSLGQRATISCRASKSVSTSSYSYMHWYQQKPGQPPKLLIKFASNLESGVPARFSGSGSGTDFTLNIHPVEEEDAATYYCQHSREFPYTFGGGTKLEIK
notes: Mouse hybridoma monoclonal antibody purified on Protein G
For the molecule B1, the OD450 nm stood at 0.11 OD450 nm in the assay with biotinylated hBLyS-ECD [8] and 1.38 OD450 nm with biotinylated hBLyS-ECD [9].

B2: c8E7D9C7F5 (antibody, V domains shown)
VH: QVQLQQSGVELARPGASVKLSCKASGYTFTSYGISWVKQRTGQALEWIGEIYPRSGNTYYNEKFKGKATLTADKSSSTAYMELRSLTSEDSAVYFCARSGPITTLVATDYGMDYWGQGTSVTVSS
VL: DIVLTQSPASLAVSLGQRATISCRASKSVSTSSYSYMHWYQQKPGQPPKLLIKFASNLESGVPARFSGSGSGTDFTLNIHPVEEEDAATYYCQHSREFPYTFGGGTKLEIK
notes: also called chimeric antibody c8E7D9C7F5
On to B2, for which the OD450 nm stood at 3.32 OD450 nm with biotinylated hBLyS-ECD [10]; 1.7 OD450 nm in the assay with biotinylated hBLyS-ECD [11]; 1.97 OD450 nm with biotinylated hBLyS-ECD [12]; 0.508 OD450 nm with biotinylated hBLyS-ECD [13]; 0.198 OD450 nm with biotinylated hBLyS-ECD [14]; 1.56 OD450 nm with biotinylated hBLyS-ECD [16]. In addition, the Kd (in general, the constant that tells how readily two partners part at equilibrium) in [15] was determined as 2.94 nM. Also, the koff – broadly, the first-order rate constant of dissociation – in [15] is 0.000714 s⁻¹. Also, in [15], the kon (as a rule, a measure of how fast the partners come together) turned out to be 243000 M⁻¹ s⁻¹.

B3: 111D10D6G3 (antibody, V domains shown)
VH: QVQLQQPGAELVKPGASVKMSCKASGYTFTRHWITWVKQRPGQGLEWIGDIFPGSGSINYNEKFKSEATLTVEKSSSTAYMQLSSLTSEDSAVYYCARGDVDVWGTGTTVTVSS
VL: DIQMTQSPSSLSASLGERVSLTCRASQEIRGYLSWLQQKPNGTIKRLIYAASTLDSGVPKRFSATRSGSDFSLTISSLESEDFADYYCLQYASYPFTFGSGTKLEIK
notes: as for B1
Turning to B3, the OD450 nm with biotinylated hBLyS-ECD [8] amounted to 0.605 OD450 nm; with biotinylated hBLyS-ECD [9] it was 1.29 OD450 nm.

B4: 97A3C2H4 (antibody, V domains shown)
VH: EVKLVESGGGLVQPGGSLKLSCAASGFTFSTYTMSWVRQTPEKRLEWVAYISYGGGSTSYPDTVKGRFTISRDNAKNTLYLQMSSLKSEDTAIYYCTRHVTVVENSMDYWGQGTSVTVSS
VL: DILLTQSPDILSVSPGERVSFSCRASQSIGTSIHWYQQRTNGSPRLLIKYVSESFSGTPSRFSGSGSGTAFTLTINSVESEDIADYYCQQTHSWPWTFGGGTKLEIK
notes: as for B1
B4: the OD450 nm with biotinylated hBLyS-ECD [8] is 0.107 OD450 nm; with biotinylated hBLyS-ECD [9], 1.21 OD450 nm.

B5: c97A3C2H4 (antibody, V domains shown)
VH: EVKLVESGGGLVQPGGSLKLSCAASGFTFSTYTMSWVRQTPEKRLEWVAYISYGGGSTSYPDTVKGRFTISRDNAKNTLYLQMSSLKSEDTAIYYCTRHVTVVENSMDYWGQGTSVTVSS
VL: DILLTQSPDILSVSPGERVSFSCRASQSIGTSIHWYQQRTNGSPRLLIKYVSESFSGTPSRFSGSGSGTAFTLTINSVESEDIADYYCQQTHSWPWTFGGGTKLEIK
notes: also called chimeric antibody c97A3C2H4
In the case of B5, the OD450 nm with biotinylated hBLyS-ECD [10] came out at 3.33 OD450 nm; with biotinylated hBLyS-ECD [11] it was 2.35 OD450 nm; with biotinylated hBLyS-ECD [12], 1.91 OD450 nm; with biotinylated hBLyS-ECD [13], 0.374 OD450 nm; with biotinylated hBLyS-ECD [14] it was 0.194 OD450 nm; with biotinylated hBLyS-ECD [16] it was 1.47 OD450 nm. Also, binding in [15] was put at a Kd of 1.49 nM. This molecule also returned an off-rate (koff) in [15] of 0.000179 s⁻¹. Further, the kon in [15] came to 121000 M⁻¹ s⁻¹.
